In the array DNA melting data of Ke et al.:

Experiment: melting temperature; melt of duplexes
Settings: sodium 0.0675 M; strand 1 µM

Substance: CGACGTGCAGTATGTGCTG+CAGCACATCAGGCACGTCG ((((((((...((((((((+))))))))...))))))))
- Tm: 50.2 °C

Substance: CGACGTGCGTTATGTGCTG+CAGCACATTGCGCACGTCG (((((((((..((((((((+))))))))..)))))))))
- Tm: 55.7 °C

Substance: CGACGTGCTTTATGTGCTG+CAGCACATTGTGCACGTCG ((((((((...((((((((+))))))))...))))))))
- Tm: 45.1 °C

Substance: CGACGTGCAACATGTGCTG+CAGCACATGGGGCACGTCG ((((((((..(((((((((+)))))))))..))))))))
- Tm: 58.9 °C

Substance: CGACGTGCCCCATGTGCTG+CAGCACATTGCGCACGTCG ((((((((.(.((((((((+)))))))).).))))))))
- Tm: 48.2 °C

Substance: CGACGTGCTTGATGTGCTG+CAGCACATACTGCACGTCG ((((((((...((((((((+))))))))...))))))))
- Tm: 50.4 °C

Substance: CGACGTGCTCGATGTGCTG+CAGCACATTTGGCACGTCG ((((((((...((((((((+))))))))...))))))))
- Tm: 50.3 °C

Substance: CGACGTGCTAGATGTGCTG+CAGCACATCGGGCACGTCG ((((((((..(((((((((+)))))))))..))))))))
- Tm: 57 °C

Substance: CGACGTGCTAAATGTGCTG+CAGCACATGATGCACGTCG ((((((((...((((((((+))))))))...))))))))
- Tm: 53.2 °C

Substance: CGACGTGCGTGATGTGCTG+CAGCACATGTAGCACGTCG ((((((((...((((((((+))))))))...))))))))
- Tm: 53.3 °C

Substance: CGACGTGCTTCATGTGCTG+CAGCACATTACGCACGTCG ((((((((.(.((((((((+)))))))).).))))))))
- Tm: 47.8 °C

Substance: CGACGTGCCCTATGTGCTG+CAGCACATATAGCACGTCG ((((((((..(((((((((+)))))))))..))))))))
- Tm: 49.6 °C

Substance: CGACGTGCCGAATGTGCTG+CAGCACATACAGCACGTCG ((((((((.(.((((((((+)))))))).).))))))))
- Tm: 50.4 °C

Substance: CGACGTGCTTGATGTGCTG+CAGCACATTGGGCACGTCG ((((((((...((((((((+))))))))...))))))))
- Tm: 50.7 °C

Substance: CGACGTGCCGGATGTGCTG+CAGCACATCTAGCACGTCG ((((((((..(((((((((+)))))))))..))))))))
- Tm: 55 °C

Substance: CGACGTGCATAATGTGCTG+CAGCACATGGTGCACGTCG (((((((((..((((((((+))))))))..)))))))))
- Tm: 52.6 °C

Substance: CGACGTGCATTATGTGCTG+CAGCACATGATGCACGTCG ((((((((((.((((((((+)))))))).))))))))))
- Tm: 58.1 °C

Substance: CGACGTGCGGAATGTGCTG+CAGCACATCCGGCACGTCG ((((((((.(.((((((((+)))))))).).))))))))
- Tm: 55.7 °C

Substance: CGACGTGCGGGATGTGCTG+CAGCACATCCGGCACGTCG ((((((((.((((((((((+)))))))))).))))))))
- Tm: 61.6 °C

Substance: CGACGTGCTATATGTGCTG+CAGCACATTAGGCACGTCG ((((((((...((((((((+))))))))...))))))))
- Tm: 51.4 °C

Substance: CGACGTGCTCCATGTGCTG+CAGCACATCGTGCACGTCG ((((((((.(.((((((((+)))))))).).))))))))
- Tm: 44.7 °C

Substance: CGACGTGCTGTATGTGCTG+CAGCACATAGTGCACGTCG ((((((((..(((((((((+)))))))))..))))))))
- Tm: 48 °C

Substance: CGACGTGCCCCATGTGCTG+CAGCACATCCTGCACGTCG ((((((((...((((((((+))))))))...))))))))
- Tm: 46.8 °C

Substance: CGACGTGCAATATGTGCTG+CAGCACATTATGCACGTCG (((((((((..((((((((+))))))))..)))))))))
- Tm: 52.1 °C

Substance: CGACGTGCACCATGTGCTG+CAGCACATGCTGCACGTCG (((((((((.(((((((((+))))))))).)))))))))
- Tm: 51.6 °C

Substance: CGACGTGCTGGATGTGCTG+CAGCACATGCCGCACGTCG ((((((((.(.((((((((+)))))))).).))))))))
- Tm: 53.6 °C

Substance: CGACGTGCACGATGTGCTG+CAGCACATTCTGCACGTCG (((((((((..((((((((+))))))))..)))))))))
- Tm: 49.2 °C

Substance: CGACGTGCTGGATGTGCTG+CAGCACATATAGCACGTCG (((((((((..((((((((+))))))))..)))))))))
- Tm: 54.6 °C

Substance: CGACGTGCTTGATGTGCTG+CAGCACATCGGGCACGTCG ((((((((..(((((((((+)))))))))..))))))))
- Tm: 56.8 °C

Substance: CGACGTGCCGAATGTGCTG+CAGCACATTGAGCACGTCG ((((((((..(((((((((+)))))))))..))))))))
- Tm: 53.3 °C

Substance: CGACGTGCTAGATGTGCTG+CAGCACATCCTGCACGTCG ((((((((..(((((((((+)))))))))..))))))))
- Tm: 54.7 °C

Substance: CGACGTGCCCCATGTGCTG+CAGCACATTAGGCACGTCG (((((((((..((((((((+))))))))..)))))))))
- Tm: 52.5 °C

Substance: CGACGTGCCTTATGTGCTG+CAGCACATGCCGCACGTCG ((((((((...((((((((+))))))))...))))))))
- Tm: 46.9 °C

Substance: CGACGTGCGCCATGTGCTG+CAGCACATATGGCACGTCG ((((((((...((((((((+))))))))...))))))))
- Tm: 48.1 °C

Substance: CGACGTGCTGCATGTGCTG+CAGCACATCATGCACGTCG ((((((((...((((((((+))))))))...))))))))
- Tm: 52.1 °C

Substance: CGACGTGCTGCATGTGCTG+CAGCACATGACGCACGTCG ((((((((..(((((((((+)))))))))..))))))))
- Tm: 52.9 °C

Substance: CGACGTGCTGTATGTGCTG+CAGCACATGATGCACGTCG ((((((((...((((((((+))))))))...))))))))
- Tm: 51.3 °C

Substance: CGACGTGCCGTATGTGCTG+CAGCACATATTGCACGTCG ((((((((..(((((((((+)))))))))..))))))))
- Tm: 51.5 °C

Substance: CGACGTGCACCATGTGCTG+CAGCACATCGGGCACGTCG ((((((((.(.((((((((+)))))))).).))))))))
- Tm: 49.4 °C

Substance: CGACGTGCAACATGTGCTG+CAGCACATCTTGCACGTCG ((((((((((.((((((((+)))))))).))))))))))
- Tm: 52.5 °C

Substance: CGACGTGCACTATGTGCTG+CAGCACATAATGCACGTCG (((((((((.(((((((((+))))))))).)))))))))
- Tm: 51.2 °C

Substance: CGACGTGCTCCATGTGCTG+CAGCACATATTGCACGTCG ((((((((...((((((((+))))))))...))))))))
- Tm: 47.9 °C

Substance: CGACGTGCGATATGTGCTG+CAGCACATTACGCACGTCG (((((((((..((((((((+))))))))..)))))))))
- Tm: 54.7 °C

Substance: CGACGTGCAATATGTGCTG+CAGCACATCGAGCACGTCG ((((((((...((((((((+))))))))...))))))))
- Tm: 48.2 °C

Substance: CGACGTGCATCATGTGCTG+CAGCACATTGGGCACGTCG ((((((((...((((((((+))))))))...))))))))
- Tm: 50 °C

Substance: CGACGTGCATTATGTGCTG+CAGCACATTACGCACGTCG ((((((((.(.((((((((+)))))))).).))))))))
- Tm: 49.3 °C

Substance: CGACGTGCATCATGTGCTG+CAGCACATTTTGCACGTCG (((((((((..((((((((+))))))))..)))))))))
- Tm: 50.7 °C

Substance: CGACGTGCAACATGTGCTG+CAGCACATTAAGCACGTCG ((((((((...((((((((+))))))))...))))))))
- Tm: 49.2 °C

Substance: CGACGTGCTTCATGTGCTG+CAGCACATGAAGCACGTCG (((((((((((((((((((+)))))))))))))))))))
- Tm: 64.4 °C

Substance: CGACGTGCGACATGTGCTG+CAGCACATCCCGCACGTCG (((((((((..((((((((+))))))))..)))))))))
- Tm: 52.3 °C

Substance: CGACGTGCGTTATGTGCTG+CAGCACATATAGCACGTCG ((((((((..(((((((((+)))))))))..))))))))
- Tm: 54.5 °C

Substance: CGACGTGCTCTATGTGCTG+CAGCACATAGAGCACGTCG (((((((((((((((((((+)))))))))))))))))))
- Tm: 63 °C

Substance: CGACGTGCCTTATGTGCTG+CAGCACATGTGGCACGTCG (((((((((..((((((((+))))))))..)))))))))
- Tm: 54.4 °C

Substance: CGACGTGCGCTATGTGCTG+CAGCACATTCCGCACGTCG (((((((((..((((((((+))))))))..)))))))))
- Tm: 52.1 °C

Substance: CGACGTGCCTGATGTGCTG+CAGCACATCTGGCACGTCG (((((((((.(((((((((+))))))))).)))))))))
- Tm: 61.1 °C

Substance: CGACGTGCATCATGTGCTG+CAGCACATCCAGCACGTCG ((((((((...((((((((+))))))))...))))))))
- Tm: 46.6 °C

Substance: CGACGTGCCAAATGTGCTG+CAGCACATCGCGCACGTCG ((((((((...((((((((+))))))))...))))))))
- Tm: 48.2 °C

Substance: CGACGTGCCTTATGTGCTG+CAGCACATCCCGCACGTCG ((((((((...((((((((+))))))))...))))))))
- Tm: 46.8 °C

Substance: CGACGTGCTGAATGTGCTG+CAGCACATTCAGCACGTCG (((((((((((((((((((+)))))))))))))))))))
- Tm: 64.4 °C

Substance: CGACGTGCTAGATGTGCTG+CAGCACATGTTGCACGTCG ((((((((.(.((((((((+)))))))).).))))))))
- Tm: 52.2 °C

Substance: CGACGTGCCAAATGTGCTG+CAGCACATTTAGCACGTCG ((((((((.((((((((((+)))))))))).))))))))
- Tm: 54.4 °C

Substance: CGACGTGCTGAATGTGCTG+CAGCACATTCTGCACGTCG ((((((((.((((((((((+)))))))))).))))))))
- Tm: 59.2 °C

Substance: CGACGTGCTTGATGTGCTG+CAGCACATGACGCACGTCG ((((((((.(.((((((((+)))))))).).))))))))
- Tm: 46.5 °C

Substance: CGACGTGCGTAATGTGCTG+CAGCACATTAAGCACGTCG ((((((((.((((((((((+)))))))))).))))))))
- Tm: 56.9 °C

Substance: CGACGTGCCATATGTGCTG+CAGCACATTGCGCACGTCG ((((((((...((((((((+))))))))...))))))))
- Tm: 51.5 °C

Substance: CGACGTGCGTGATGTGCTG+CAGCACATCTAGCACGTCG ((((((((..(((((((((+)))))))))..))))))))
- Tm: 57.2 °C

Substance: CGACGTGCGTTATGTGCTG+CAGCACATCGTGCACGTCG ((((((((...((((((((+))))))))...))))))))
- Tm: 44 °C

Substance: CGACGTGCATTATGTGCTG+CAGCACATCGGGCACGTCG ((((((((...((((((((+))))))))...))))))))
- Tm: 47 °C

Substance: CGACGTGCCAGATGTGCTG+CAGCACATGATGCACGTCG ((((((((...((((((((+))))))))...))))))))
- Tm: 49.4 °C

Substance: CGACGTGCTTCATGTGCTG+CAGCACATTGTGCACGTCG ((((((((...((((((((+))))))))...))))))))
- Tm: 44.4 °C

Substance: CGACGTGCATAATGTGCTG+CAGCACATTTAGCACGTCG ((((((((..(((((((((+)))))))))..))))))))
- Tm: 53.2 °C

Substance: CGACGTGCAGCATGTGCTG+CAGCACATTCCGCACGTCG ((((((((.(.((((((((+)))))))).).))))))))
- Tm: 46.4 °C
